Measured values as given in publication PMC7440162 (Cell, 2020).

T1: PRTG ECD-Fc (human, UniProt Q2VWP7 36-949)
T1 sequence: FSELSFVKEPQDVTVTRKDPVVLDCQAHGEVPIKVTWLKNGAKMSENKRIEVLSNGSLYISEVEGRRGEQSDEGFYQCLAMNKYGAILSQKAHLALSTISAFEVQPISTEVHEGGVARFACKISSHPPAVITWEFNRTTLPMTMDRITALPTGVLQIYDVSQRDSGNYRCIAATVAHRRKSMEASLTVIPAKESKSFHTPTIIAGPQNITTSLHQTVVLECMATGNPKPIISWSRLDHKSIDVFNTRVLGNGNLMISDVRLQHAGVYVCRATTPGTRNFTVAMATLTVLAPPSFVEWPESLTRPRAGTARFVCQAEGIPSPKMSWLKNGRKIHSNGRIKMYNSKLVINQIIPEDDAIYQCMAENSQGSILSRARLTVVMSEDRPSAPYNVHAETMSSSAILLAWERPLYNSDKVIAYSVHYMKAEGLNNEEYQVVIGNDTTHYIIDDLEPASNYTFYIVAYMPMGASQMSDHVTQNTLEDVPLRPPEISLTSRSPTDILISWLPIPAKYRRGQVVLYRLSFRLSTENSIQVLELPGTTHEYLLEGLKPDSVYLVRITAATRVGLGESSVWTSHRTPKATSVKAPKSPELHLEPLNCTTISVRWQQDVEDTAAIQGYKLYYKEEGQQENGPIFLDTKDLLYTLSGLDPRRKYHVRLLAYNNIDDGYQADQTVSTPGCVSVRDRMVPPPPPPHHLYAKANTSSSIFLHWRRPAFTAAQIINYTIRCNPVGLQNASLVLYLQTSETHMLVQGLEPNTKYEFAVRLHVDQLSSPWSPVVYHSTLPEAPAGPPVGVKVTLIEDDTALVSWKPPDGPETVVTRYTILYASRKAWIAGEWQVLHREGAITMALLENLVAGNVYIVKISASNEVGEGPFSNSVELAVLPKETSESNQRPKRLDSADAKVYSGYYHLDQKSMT

T2: PTPRS ECD-Fc (human, UniProt Q13332 30-1282)
T2 sequence: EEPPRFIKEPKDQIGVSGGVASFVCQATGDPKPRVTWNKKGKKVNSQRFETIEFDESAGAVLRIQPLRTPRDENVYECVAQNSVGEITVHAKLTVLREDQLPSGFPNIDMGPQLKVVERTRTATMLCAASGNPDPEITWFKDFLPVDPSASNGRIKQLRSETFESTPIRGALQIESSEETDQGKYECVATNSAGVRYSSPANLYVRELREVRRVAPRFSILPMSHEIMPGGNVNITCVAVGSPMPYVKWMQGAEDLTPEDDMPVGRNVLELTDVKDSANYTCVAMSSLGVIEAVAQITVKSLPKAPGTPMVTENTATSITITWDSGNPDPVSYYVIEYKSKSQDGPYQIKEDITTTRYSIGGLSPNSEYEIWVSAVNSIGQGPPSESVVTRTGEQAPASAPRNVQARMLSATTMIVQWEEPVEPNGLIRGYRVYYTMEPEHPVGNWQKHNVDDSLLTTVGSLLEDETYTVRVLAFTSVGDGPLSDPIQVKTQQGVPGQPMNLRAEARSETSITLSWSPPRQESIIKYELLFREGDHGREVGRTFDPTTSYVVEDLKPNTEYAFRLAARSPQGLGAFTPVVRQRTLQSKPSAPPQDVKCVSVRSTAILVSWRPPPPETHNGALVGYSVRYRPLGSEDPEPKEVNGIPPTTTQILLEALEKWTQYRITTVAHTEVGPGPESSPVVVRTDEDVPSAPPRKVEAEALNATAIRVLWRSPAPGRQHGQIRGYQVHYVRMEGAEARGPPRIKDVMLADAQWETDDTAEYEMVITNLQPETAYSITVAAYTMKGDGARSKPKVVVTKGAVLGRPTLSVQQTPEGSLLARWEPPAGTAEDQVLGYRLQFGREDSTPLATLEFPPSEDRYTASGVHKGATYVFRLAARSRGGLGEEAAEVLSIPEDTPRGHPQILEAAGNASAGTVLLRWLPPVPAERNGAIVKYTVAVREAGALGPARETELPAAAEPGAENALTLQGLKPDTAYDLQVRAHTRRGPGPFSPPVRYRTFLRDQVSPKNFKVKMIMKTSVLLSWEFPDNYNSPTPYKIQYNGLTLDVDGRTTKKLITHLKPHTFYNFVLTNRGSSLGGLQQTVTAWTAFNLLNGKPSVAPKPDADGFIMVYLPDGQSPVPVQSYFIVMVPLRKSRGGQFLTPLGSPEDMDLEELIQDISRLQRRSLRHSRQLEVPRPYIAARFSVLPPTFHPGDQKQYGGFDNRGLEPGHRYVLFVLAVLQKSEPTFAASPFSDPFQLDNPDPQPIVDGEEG

T3: human ISLR2 ECD-Fc (human, UniProt Q6UXK2 19-589, biotin on the AviTag (as SPR ligand))
T3 sequence: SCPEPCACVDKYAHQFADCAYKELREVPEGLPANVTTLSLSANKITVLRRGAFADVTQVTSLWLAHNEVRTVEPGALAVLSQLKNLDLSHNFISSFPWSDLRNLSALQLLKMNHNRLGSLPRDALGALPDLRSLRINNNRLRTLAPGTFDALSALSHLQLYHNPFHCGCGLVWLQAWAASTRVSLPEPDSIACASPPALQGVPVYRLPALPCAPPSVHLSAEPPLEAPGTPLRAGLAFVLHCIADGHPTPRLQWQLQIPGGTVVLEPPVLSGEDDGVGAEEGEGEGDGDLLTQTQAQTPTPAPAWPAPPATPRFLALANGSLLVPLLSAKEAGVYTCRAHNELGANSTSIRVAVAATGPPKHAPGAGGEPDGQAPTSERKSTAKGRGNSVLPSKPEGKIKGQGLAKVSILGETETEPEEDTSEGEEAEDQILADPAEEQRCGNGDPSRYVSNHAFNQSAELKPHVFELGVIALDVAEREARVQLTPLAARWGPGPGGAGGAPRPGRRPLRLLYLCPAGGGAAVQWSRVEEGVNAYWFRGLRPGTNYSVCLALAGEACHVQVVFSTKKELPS


Key:
Assay in all cases: SPR
PRTG ECD-Fc = biological target: T1, PRTG ECD-Fc
PTPRS ECD-Fc = biological target: T2, PTPRS ECD-Fc
human ISLR2 ECD-Fc = biological target: T3, human ISLR2 ECD-Fc

binding result (PRTG ECD-Fc) | binding result (PTPRS ECD-Fc) | binding result (human ISLR2 ECD-Fc) | Binder
binds | – | – | LTF-Fc (Fc fusion, biotin on the AviTag (as SPR ligand)) GRRRSVQWCAVSQPEATKCFQWQRNMRKVRGPPVSCIKRDSPIQCIQAIAENRADAVTLDGGFIYEAGLAPYKLRPVAAEVYGTERQPRTHYYAVAVVKKGGSFQLNELQGLKSCHTGLRRTAGWNVPIGTLRPFLNWTGPPEPIEAAVARFFSASCVPGADKGQFPNLCRLCAGTGENKCAFSSQEPYFSYSGAFKCLRDGAGDVAFIRESTVFEDLSDEAERDEYELLCPDNTRKPVDKFKDCHLARVPSHAVVARSVNGKEDAIWNLLRQAQEKFGKDKSPKFQLFGSPSGQKDLLFKDSAIGFSRVPPRIDSGLYLGSGYFTAIQNLRKSEEEVAARRARVVWCAVGEQELRKCNQWSGLSEGSVTCSSASTTEDCIALVLKGEADAMSLDGGYVYTAGKCGLVPVLAENYKSQQSSDPDPNCVDRPVEGYLAVAVVRRSDTSLTWNSVKGKKSCHTAVDRTAGWNIPMGLLFNQTGSCKFDEYFSQSCAPGSDPRSNLCALCIGDEQGENKCVPNSNERYYGYTGAFRCLAENAGDVAFVKDVTVLQNTDGNNNEAWAKDLKLADFALLCLDGKRKPVTEARSCHLAMAPNHAVVSRMDKVERLKQVLLHQQAKFGRNGSDCPDKFCLFQSETKNLLFNDNTECLARLHGKTTYEKYLGPQYVAGITNLKKCSTSPLLEACEFLRK
binds | – | binds | WFIKKN2-Fc (Fc fusion, biotin on the AviTag (as SPR ligand)) LPPIRYSHAGICPNDMNPNLWVDAQSTCRRECETDQECETYEKCCPNVCGTKSCVAARYMDVKGKKGPVGMPKEATCDHFMCLQQGSECDIWDGQPVCKCKDRCEKEPSFTCASDGLTYYNRCYMDAEACSKGITLAVVTCRYHFTWPNTSPPPPETTMHPTTASPETPELDMAAPALLNNPVHQSVTMGETVSFLCDVVGRPRPEITWEKQLEDRENVVMRPNHVRGNVVVTNIAQLVIYNAQLQDAGIYTCTARNVAGVLRADFPLSVVRGHQAAATSESSPNGTAFPAAECLKPPDSEDCGEEQTRWHFDAQANNCLTFTFGHCHRNLNHFETYEACMLACMSGPLAACSLPALQGPCKAYAPRWAYNSQTGQCQSFVYGGCEGNGNNFESREACEESCPFPRGNQRCRACKPRQKLVTSFCRSDFVILGRVSELTEEPDSGRALVTVDEVLKDEKMGLKFLGQEPLEVTLLHVDWACPCPNVTVSEMPLIIMGEVDGGMAMLRPDSFVGASSARRVRKLREVMHKKTCDVLKEFLGLH

The remaining lines, values behind:

Binder | binding result (PRTG ECD-Fc) | binding result (PTPRS ECD-Fc) | binding result (human ISLR2 ECD-Fc)
IL1RAPL1 ECD-Fc (Fc fusion, biotin on the AviTag (as SPR ligand)) LKVVTKRGSADGCTDWSIDIKKYQVLVGEPVRIKCALFYGYIRTNYSLAQSAGLSLMWYKSSGPGDFEEPIAFDGSRMSKEEDSIWFRPTLLQDSGLYACVIRNSTYCMKVSISLTVGENDTGLCYNSKMKYFEKAELSKSKEISCRDIEDFLLPTREPEILWYKECRTKTWRPSIVFKRDTLLIREVREDDIGNYTCELKYGGFVVRRTTELTVTAPLTDKPPKLLYPMESKLTIQETQLGDSANLTCRAFFGYSGDVSPLIYWMKGEKFIEDLDENRVWESDIRILKEHLGEQEVSISLIVDSVEEGDLGNYSCYVENGNGRRHASVLLHKRELMYT | – | binds | –
ICAM5 ECD-Fc (Fc fusion, biotin on the AviTag (as SPR ligand)) EPFWADLQPRVAFVERGGSLWLNCSTNCPRPERGGLETSLRRNGTQRGLRWLARQLVDIREPETQPVCFFRCARRTLQARGLIRTFQRPDRVELMPLPPWQPVGENFTLSCRVPGAGPRASLTLTLLRGAQELIRRSFAGEPPRARGAVLTATVLARREDHGANFSCRAELDLRPHGLGLFENSSAPRELRTFSLSPDAPRLAAPRLLEVGSERPVSCTLDGLFPASEARVYLALGDQNLSPDVTLEGDAFVATATATASAEQEGARQLVCNVTLGGENRETRENVTIYSFPAPLLTLSEPSVSEGQMVTVTCAAGAQALVTLEGVPAAVPGQPAQLQLNATENDDRRSFFCDATLDVDGETLIKNRSAELRVLYAPRLDDSDCPRSWTWPEGPEQTLRCEARGNPEPSVHCARSDGGAVLALGLLGPVTRALSGTYRCKAANDQGEAVKDVTLTVEYAPALDSVGCPERITWLEGTEASLSCVAHGVPPPDVICVRSGELGAVIEGLLRVAREHAGTYRCEATNPRGSAAKNVAVTVEYGPRFEEPSCPSNWTWVEGSGRLFSCEVDGKPQPSVKCVGSGGATEGVLLPLAPPDPSPRAPRIPRVLAPGIYVCNATNRHGSVAKTVVVSAESPPEMDESTCPSHQTWLEGAEASALACAARGRPSPGVRCSREGIPWPEQQRVSREDAGTYHCVATNAHGTDSRTVTVGVEYRPVVAELAASPPGGVRPGGNFTLTCRAEAWPPAQISWRAPPGALNIGLSSNNSTLSVAGAMGSHGGEYECAATNAHGRHARRITVRVAGPW | binds | – | –
